# Test results published in patent US20240181068A1, “SELECTIVE NEUTRAL PH INHIBITOR OF CATHEPSIN B” (The Regents of the University of California, priority 2021, published 2024).
# Peptide text beside a SMILES is read from it. * marks the point of attachment. AOMK = acyloxymethyl ketone warhead replacing the C-terminal carboxyl; AMC = Cc1cc(=O)oc2cc(N*)ccc12; Cbz = O=C(OCc1ccccc1)*
# Tests used:
# [1] = target: T1, cathepsin B in human neuroblastoma cells (SHSY5Y) (Homo sapiens, UniProt P07858); experiment: Neuroblastoma cells incubated with inhibitors, then cathepsin B assay; format: cell-based; conditions: cells incubated with 50 μM inhibitor for 6 hrs, washed, homogenate assayed with Z-Arg-Arg-AMC
# T1 construct: endogenous in cells; host or cells: SH-SY5Y human neuroblastoma cells
# Method: Cathepsin B in human neuroblastoma cells treated with inhibitors. Neuroblastoma cells (human SHSY5Y) were grown in media consisting of 50% MEMalpha, 50% F12-K, 10% heat-inactivated FBS at 37° C. in an atmosphere of 95% air and 5% CO2. Firstly, cell homogenates were prepared by collection of cells in 0.32 M sucrose and freeze-thawing. Secondly, cells were incubated with Z-Arg-Lys-AOMK or CA-074Me for 6 hours at 37° C., and washed 3 times in phosphate-buffered saline and homogenates were prepared in 0.32 M sucrose with freeze-thawing. CA-074Me is a methyl ester form of the active CA-074 selective inhibitor of cathepsin B (70); CA-074Me penetrates the cell and is converted by intracellular esterases to CA-074.
# Cathepsin B activity in the homogenates were monitored with Z-Arg-Arg-AMC substrate (60 μM) with buffer conditions of 40 mM citrate-phosphate, pH 5.5, 5 mM DTT, 1 mM EDTA, 100 mM NaCl, and 1.2% DMSO, followed by incubation at 37° C. for 30 minutes and reading of AMC fluorescence. CA-074-senstive activity was monitored to indicate cathepsin B activity, since CA-074 is a selective inhibitor of this enzyme (70). Protein content was measured in homogenates with the DC protein assay kit. Cathepsin B specific activity was calculated as nmol AMC/μg/min, and reported as the mean±SD (with analyses for statistical significance, p<0.05 by student's t-test).
# cathepsin B = target: T2, cathepsin B (Homo sapiens, UniProt P07858); experiment: pH profile of cathepsin B activity with peptide-AMC substrates; format: biochemical; conditions: substrate 60 μM
# T2 construct: purchased R&D Systems 953-CY-010
# Method: Cathepsin B activity assayed by fluorogenic peptide substrates. Proteolytic assays of cathepsin B were conducted with Z-Arg-Lys-AMC and Z-Gly-Lys-AMC substrates in 50 mM citrate phosphate at pH 7.2 or pH 4.6, 1 mM EDTA, 100 mM NaCl, and 5 mM DTT. Assays with Z-Phe-Arg-AMC substrate were conducted under identical conditions and included 0.01% Tween20. Assays were performed in 384 well plates at 25° C. in a total volume of 30 μL. Fluorescence was quantified by a Biotek Synergy HTX microplate plate reader with excitation 360 nm, emission 460 nm, gain 50, top optics and read height 1 mm. Proteolytic activity is reported as relative fluorescent units per sec (RFU/sec), and was calculated using the highest slope recorded for 10 consecutive readings. Fluorescent readings were taken in 46 sec intervals and therefore activity is calculated over a total of 460 sec. To ensure that initial velocity is assessed, only readings within the first 30 minutes of the reaction were analyzed. RFU/sec readings were converted to enzyme specific activity of pmol/min/μg using the conversion factor of 1227 RFU per μM AMC.
# To generate the pH profile of cathepsin B activity with the substrates Z-Arg-Lys-AMC, Z-Glu-Lys-AMC, and Z-Phe-Arg-AMC, 60 μM of each substrate and 0.04 ng/ul of cathepsin B were assayed in citrate phosphate buffers ranging from pH 2.2 to 7.4 in increments of 0.4 pH units, including pH 7.2. […]
# cathepsin L = target: T3, cathepsin L (Homo sapiens, UniProt P07711); experiment: Specificity of peptide-AMC substrates: cathepsin L; format: biochemical
# T3 construct: purchased R&D Systems 952-CY-010
# cathepsin V = target: T4, cathepsin V (Homo sapiens, UniProt O60911); experiment: Specificity of peptide-AMC substrates: cathepsin V; format: biochemical
# T4 construct: purchased R&D Systems 1080-CY-010
# [2] = target: Recombinant human cathepsin B (R&D #953-CY-010) (human) (UniProt P07858); experiment: inactivation kinetics, fluorogenic cathepsin B assay with Z-Phe-Arg-AMC, pH 7.2
# [3] = target: Recombinant human cathepsin B (R&D #953-CY-010) (human) (UniProt P07858); experiment: cell-based or functional assay
# [4] = target: Recombinant human cathepsin B (R&D #953-CY-010) (human) (UniProt P07858); experiment: ratio of KI values, fluorogenic cathepsin B assay
# [5] = target: Recombinant human cathepsin B (R&D #953-CY-010) (human) (UniProt P07858); experiment: inactivation kinetics, fluorogenic cathepsin B assay with Z-Phe-Arg-AMC, pH 4.6
# [6] = target: cathepsin S (R&D #1183-CY-010) (human, UniProt P25774 17-331); experiment: cell-based or functional assay
# [7] = target: cathepsin L (R&D #952-CY-010) (human, UniProt P07711 114-333); experiment: cell-based or functional assay
# [8] = target: T5, cathepsin H (R&D #75116-CY-010) (human, UniProt P09668 116-335); experiment: cell-based or functional assay
# T5 sequence (looked up): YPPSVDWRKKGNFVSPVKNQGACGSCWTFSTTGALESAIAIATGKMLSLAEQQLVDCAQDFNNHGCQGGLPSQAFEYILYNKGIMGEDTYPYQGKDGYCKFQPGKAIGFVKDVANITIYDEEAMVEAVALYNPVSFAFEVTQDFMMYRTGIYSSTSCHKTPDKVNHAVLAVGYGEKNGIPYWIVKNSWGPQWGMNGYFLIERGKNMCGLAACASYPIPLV
# [9] = target: T6, cathepsin V (R&D #1080-CY-010) (human, UniProt O60911 18-334); experiment: cell-based or functional assay
# T6 sequence (looked up): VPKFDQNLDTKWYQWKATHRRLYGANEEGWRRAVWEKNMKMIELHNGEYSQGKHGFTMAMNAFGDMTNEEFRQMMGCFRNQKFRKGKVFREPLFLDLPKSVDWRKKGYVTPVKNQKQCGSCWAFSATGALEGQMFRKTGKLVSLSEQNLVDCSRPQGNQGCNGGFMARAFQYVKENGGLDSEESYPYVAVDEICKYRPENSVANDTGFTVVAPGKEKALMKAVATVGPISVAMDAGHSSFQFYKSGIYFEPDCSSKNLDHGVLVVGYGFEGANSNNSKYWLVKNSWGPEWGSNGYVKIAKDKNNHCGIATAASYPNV
# [10] = target: cathepsin C (R&D #1071-CY-010) (human, UniProt P53634 25-463); experiment: cell-based or functional assay
# [11] = target: T7, cathepsin K (Abcam #ab157067) (human, UniProt P43235 115-329, limits assumed); experiment: cell-based or functional assay
# T7 sequence (looked up): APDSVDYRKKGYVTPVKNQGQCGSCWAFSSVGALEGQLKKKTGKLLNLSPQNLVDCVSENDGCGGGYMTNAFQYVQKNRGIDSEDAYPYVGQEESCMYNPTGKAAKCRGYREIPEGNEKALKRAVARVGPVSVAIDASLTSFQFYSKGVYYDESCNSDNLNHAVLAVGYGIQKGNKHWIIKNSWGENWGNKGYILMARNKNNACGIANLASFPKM
# cathepsin X = cathepsin X (UniProt Q9UBR2 24-303, limits assumed); experiment: cell-based or functional assay
# Sequence of cathepsin X (Q9UBR2 24-303 limits assumed): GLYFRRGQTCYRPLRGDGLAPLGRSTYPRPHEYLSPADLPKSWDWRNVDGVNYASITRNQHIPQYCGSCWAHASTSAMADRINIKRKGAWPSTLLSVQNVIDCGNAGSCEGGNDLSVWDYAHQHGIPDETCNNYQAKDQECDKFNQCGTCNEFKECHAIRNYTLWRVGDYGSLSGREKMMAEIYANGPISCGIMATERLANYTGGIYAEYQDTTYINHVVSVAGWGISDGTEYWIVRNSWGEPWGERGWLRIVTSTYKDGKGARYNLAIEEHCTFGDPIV
# Sequence of cathepsin S (R&D #1183-CY-010) (P25774 17-331 limits assumed): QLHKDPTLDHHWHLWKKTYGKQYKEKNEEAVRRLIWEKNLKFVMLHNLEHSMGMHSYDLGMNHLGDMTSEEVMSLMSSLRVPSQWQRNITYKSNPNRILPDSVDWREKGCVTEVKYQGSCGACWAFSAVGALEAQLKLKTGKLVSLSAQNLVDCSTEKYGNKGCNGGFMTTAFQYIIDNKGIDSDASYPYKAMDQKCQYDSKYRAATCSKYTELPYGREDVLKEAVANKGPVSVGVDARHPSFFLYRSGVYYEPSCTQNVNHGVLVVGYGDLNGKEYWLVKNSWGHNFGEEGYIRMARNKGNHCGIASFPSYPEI
# Sequence of cathepsin L (R&D #952-CY-010) (P07711 114-333): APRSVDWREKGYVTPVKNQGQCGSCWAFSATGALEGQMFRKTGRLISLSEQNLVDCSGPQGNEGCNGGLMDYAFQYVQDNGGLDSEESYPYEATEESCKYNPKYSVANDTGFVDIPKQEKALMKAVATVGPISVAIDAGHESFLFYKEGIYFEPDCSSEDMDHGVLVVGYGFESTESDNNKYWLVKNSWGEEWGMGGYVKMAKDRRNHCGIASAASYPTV
# T3 sequence (P07711 114-333): as above
# Sequence of cathepsin C (R&D #1071-CY-010) (P53634 25-463 limits assumed): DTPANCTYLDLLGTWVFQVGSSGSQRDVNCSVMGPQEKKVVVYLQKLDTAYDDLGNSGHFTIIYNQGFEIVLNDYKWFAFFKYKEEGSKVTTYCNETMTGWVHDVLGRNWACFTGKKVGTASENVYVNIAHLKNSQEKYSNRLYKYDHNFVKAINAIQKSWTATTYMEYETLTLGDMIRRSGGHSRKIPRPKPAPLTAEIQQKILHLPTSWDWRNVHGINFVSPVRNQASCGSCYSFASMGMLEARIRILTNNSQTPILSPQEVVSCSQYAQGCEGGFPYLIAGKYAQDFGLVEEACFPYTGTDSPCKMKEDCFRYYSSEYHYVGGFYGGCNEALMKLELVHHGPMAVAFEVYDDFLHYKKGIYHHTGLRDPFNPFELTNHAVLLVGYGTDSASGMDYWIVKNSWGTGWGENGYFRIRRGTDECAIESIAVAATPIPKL
molecule,measurement,setting,value
"CCCNC(=O)[C@H]1O[C@@H]1C(=O)N[C@H](C(=O)N1CCC[C@H]1C(=O)OC)[C@@H](C)CC [CA-074Me, reference compound]",inhibition of cellular cathepsin B activity,[1],completely inhibited
Cc1cc(=O)oc2cc(NC(=O)[C@H](CCCCN)NC(=O)[C@H](CCCNC(=N)N)NC(=O)OCc3ccccc3)ccc12 [Z-Arg-Lys-AMC] (Cbz-Arg-Lys-{AMC}),pH of maximal hydrolysis by cathepsin B,cathepsin B,7.8
same,substrate activity for cathepsin L,cathepsin L; pH 7.2 (data not shown),no activity
same,substrate activity for cathepsin V,cathepsin V; pH 7.2 (data not shown),no activity
Cc1cc(=O)oc2cc(NC(=O)[C@H](CCCCN)NC(=O)[C@H](CCC(=O)O)NC(=O)OCc3ccccc3)ccc12 [Z-Glu-Lys-AMC] (Cbz-Glu-Lys-{AMC}),pH of maximal hydrolysis by cathepsin B,cathepsin B,4.6
same,substrate activity for cathepsin L,cathepsin L; pH 4.6,no activity
same,substrate activity for cathepsin V,cathepsin V; pH 4.6,no activity
Cc1cc(=O)oc2cc(NC(=O)C(CCCN=C(N)N)NC(=O)C(Cc3ccccc3)NC(=O)OCc3ccccc3)ccc12 (stereo not drawn) [Z-Phe-Arg-AMC] (Cbz-Phe-Arg-{AMC}; configuration not given here),substrate activity for cathepsin L,cathepsin L; pH 4.6,cleaved
same,substrate activity for cathepsin V,cathepsin V; pH 4.6,cleaved
Z-Arg-Lys-AOMK (peptide),Kinact/KI,[2],110000 M⁻¹ s⁻¹
same,"IC50 of inhibition of cathepsin B activity (Z-Phe-Arg-AMC substrate, no pre-incubation), pH 4.6",[3],1.5 µM
same,"IC50 of inhibition of cathepsin B activity (Z-Phe-Arg-AMC substrate, no pre-incubation), pH 7.2",[3],20 nM
same,"IC50 of inhibition of cathepsin B activity, pH 6.8 (data not shown)",[3],22 nM
same,"IC50 of inhibition of enzyme activity, pH 4.6",[3],1.5 µM
same,"IC50 of inhibition of enzyme activity, pH 7.2",[3],20 nM
same,"fold greater potency (IC50) for cathepsin B than for cathepsin C, pH 7.2",[3],43 fold
same,"fold greater potency (IC50) for cathepsin B than for cathepsin S, pH 7.2",[3],110 fold
same,"fold greater potency (IC50) for cathepsin B than for cathepsin V, pH 7.2",[3],22 fold
same,"reduction of cathepsin B activity (Z-Phe-Arg-AMC substrate) by 64 nM inhibitor, pH 4.6",[3],5%
same,"reduction of cathepsin B activity (Z-Phe-Arg-AMC substrate) by 64 nM inhibitor, pH 7.2",[3],93%
same,fold greater potency (KI) at pH 7.2 compared to pH 4.6,[4],115 fold
same,Kinact/KI,[5],1800 M⁻¹ s⁻¹
Z-Glu-Lys-AOMK (peptide),Kinact/KI,[2],8200 M⁻¹ s⁻¹
same,"IC50 of inhibition of cathepsin B activity (Z-Phe-Arg-AMC substrate, no pre-incubation), pH 4.6",[3],1.1 µM
same,"IC50 of inhibition of cathepsin B activity (Z-Phe-Arg-AMC substrate, no pre-incubation), pH 7.2",[3],320 nM
same,"IC50 of inhibition of enzyme activity, pH 4.6",[3],1.1 µM
same,"IC50 of inhibition of enzyme activity, pH 7.2",[3],320 nM
same,"fold greater potency (IC50) for cathepsin B than for cathepsin C, pH 7.2",[3],38 fold
same,fold greater potency (KI) at pH 7.2 compared to pH 4.6,[4],3.5 fold
same,Kinact/KI,[5],2000 M⁻¹ s⁻¹
Cbz-Arg-Lys-{AOMK} [Z-Arg-Lys-AOMK],"% inhibition of enzyme activity at 16,000 nM inhibitor, pH 4.6",[6],13%
same,"IC50 of inhibition of enzyme activity (Z-Phe-Arg-AMC substrate), pH 4.6",[6],> 16 µM
same,"IC50 of inhibition of enzyme activity (Z-Phe-Arg-AMC substrate), pH 7.2",[6],2.2 µM
same,"% inhibition of enzyme activity at 16,000 nM inhibitor, pH 4.6",[7],32%
same,"IC50 of inhibition of enzyme activity (Z-Phe-Arg-AMC substrate), pH 4.6",[7],> 16 µM
same,"% inhibition of enzyme activity at 16,000 nM inhibitor, pH 7.2",[8],29%
same,"IC50 of inhibition of enzyme activity (Arg-AMC substrate), pH 7.2",[8],> 16 µM
same,"% inhibition of enzyme activity at 16,000 nM inhibitor, pH 4.6",[9],63%
same,"IC50 of inhibition of enzyme activity (Z-Phe-Arg-AMC substrate), pH 4.6",[9],> 16 µM
same,"IC50 of inhibition of enzyme activity (Z-Phe-Arg-AMC substrate), pH 7.2",[9],440 nM
same,"% inhibition of enzyme activity at 16,000 nM inhibitor, pH 4.6",[10],6%
same,"IC50 of inhibition of enzyme activity (Gly-Arg-AMC substrate), pH 4.6",[10],> 16 µM
same,"IC50 of inhibition of enzyme activity (Gly-Arg-AMC substrate), pH 7.2",[10],850 nM
same,"% inhibition of enzyme activity at 16,000 nM inhibitor, pH 7.2",[11],31%
same,"IC50 of inhibition of enzyme activity (Z-Phe-Arg-AMC substrate), pH 7.2",[11],> 16 µM
same,"% inhibition of enzyme activity at 16,000 nM inhibitor, pH 4.6",cathepsin X,21%
same,"IC50 of inhibition of enzyme activity (MCA-Arg-Pro-Pro-Gly-Phe-Ser-Ala-Phe-Lys(Dnp)OH substrate), pH 4.6",cathepsin X,> 16 µM
Cbz-Glu-Lys-{AOMK} [Z-Glu-Lys-AOMK],"% inhibition of enzyme activity at 16,000 nM inhibitor, pH 4.6",[6],26%
same,"% inhibition of enzyme activity at 16,000 nM inhibitor, pH 7.2",[6],30%
same,"IC50 of inhibition of enzyme activity (Z-Phe-Arg-AMC substrate), pH 4.6",[6],> 16 µM
same,"IC50 of inhibition of enzyme activity (Z-Phe-Arg-AMC substrate), pH 7.2",[6],> 16 µM
same,"% inhibition of enzyme activity at 16,000 nM inhibitor, pH 4.6",[7],23%
same,"IC50 of inhibition of enzyme activity (Z-Phe-Arg-AMC substrate), pH 4.6",[7],> 16 µM
same,"% inhibition of enzyme activity at 16,000 nM inhibitor, pH 7.2",[9],10%
same,"IC50 of inhibition of enzyme activity (Z-Phe-Arg-AMC substrate), pH 4.6",[9],1.9 µM
same,"IC50 of inhibition of enzyme activity (Z-Phe-Arg-AMC substrate), pH 7.2",[9],> 16 µM
same,"IC50 of inhibition of enzyme activity (Gly-Arg-AMC substrate), pH 4.6",[10],8.6 µM
same,"IC50 of inhibition of enzyme activity (Gly-Arg-AMC substrate), pH 7.2",[10],12 µM
same,"% inhibition of enzyme activity at 16,000 nM inhibitor, pH 4.6",[11],10%
same,"IC50 of inhibition of enzyme activity (Z-Phe-Arg-AMC substrate), pH 4.6",[11],> 16 µM
